Data reported in paper PMC11650997 (Journal of Virology, 2024).

How the values were obtained:
Conditions in all cases: both partners purified
[1] = biological target: T1, SARS-CoV-2 RBD (aa 334-527) (Severe acute respiratory syndrome …, UniProt P0DTC2); test: SPR
T1 construct: also called recombinant RBD; monomeric RBD

[2] = biological target: RsSHC014 S protein ectodomain (Bat SARS-like coronavirus RsSHC014 …, UniProt U5WLK5); test: ELISA; […], room temperature; […]
[3] = biological target: T2, BM48-31 S protein ectodomain (Bat coronavirus BM48-31/BGR/2008 …); test: ELISA; […], room temperature; […]
T2 construct: also called sarbecovirus BM48-31 S protein

[4] = biological target: RaTG13 S protein ectodomain (Bat coronavirus RaTG13 (MN996532), UniProt A0ABF7PLN6); test: ELISA; […], room temperature; […]
[5] = biological target: CoVZC45 S protein ectodomain (Bat SARS-like coronavirus CoVZC45 …, UniProt A0A2R3SUW7); test: ELISA; […], room temperature; […]
[6] = biological target: T3, HKU3-1 S protein ectodomain (Bat SARS coronavirus HKU3-1 (DQ022305), UniProt Q3LZX1); test: ELISA; […], room temperature; […]
T3 construct: source: Drosophila S2 cells, secreted, purified (Strep-Tactin XT, Superose 6 SEC)

[7] = biological target: WIV-1 S protein ectodomain (Bat SARS-like coronavirus WIV1 …, UniProt U5WI05); test: ELISA; […], room temperature; […]

B1: pT1616 (human monoclonal antibody, IgG1) (antibody, V domains shown)
VH: QVQLVQSGAEVKKPGSSVKVSCKASGGTFSSYTISWVRQAPGQGLECMGRIIPILGIANYAQKFQGRVTITADKSTSIAYMEVSSLRSEDTAVYYCATEVGYSGYGSAEYFNHWGQGTPVTVSS
VL: QSVLTQPPSVSGAPGQRVTISCTGSNSNIGAGYDVHWYQQLPGTAPKLLIYANNNRPSGVPDRFSGSRSGTSASLVITGLQADDEADYYCQSYDSSLTGSLFGGGTKLTVL
notes: also called bnAb pT1616; nAb pT1616; source: HEK293ExPi, transfected, purified from the supernatant (Protein G, SEC)
B1 gave a Kd [1] of 240 pM, a koff [1] of 0.00019 s⁻¹ and a kon [1] of 780000 M⁻¹ s⁻¹.

B2: pT1616 IgG1 (antibody, V domains shown)
VH: B1 VH
VL: B1 VL
notes: also called bnAb pT1616; nAb pT1616; source: HEK293ExPi, transfected, purified from supernatant (Protein G, SEC)
B2: binds [2]; no binding (tested: 2 µg/mL antibody) [3]; binds [4]. B2: binds [5]; binds [6]; binds [7].
